B1: Histone deacetylase 7 (Mus musculus), Q8C2B3 (parent)
chain: MHSPGAGCPALQPDTPGSQPQPMDLRVGQRPTVEPPPEPALLTLQHPQRLHRHLFLAGLHQQQRSAEPMRLSMDPPMPELQGGQQEQELRQLLNKDKSKRSAVASSVVKQKLAEVILKKQQAALERTVHPSSPSIPYRTLEPLDTEGAARSVLSSFLPPVPSLPTEPPEHFPLRKTVSEPNLKLRYKPKKSLERRKNPLLRKESAPPSLRRRPAETLGDSSPSSSSTPASGCSSPNDSEHGPNPALGSEADGDRRTHSTLGPRGPVLGNPHAPLFLHHGLEPEAGGTLPSRLQPILLLDPSVSHAPLWTVPGLGPLPFHFAQPLLTTERLSGSGLHRPLNRTRSEPLPPSATASPLLAPLQPRQDRLKPHVQLIKPAISPPQRPAKPSEKPRLRQIPSAEDLETDGGGVGPMANDGLEHRESGRGPPEGRGSISLQQHQQVPPWEQQHLAGRLSQGSPGDSVLIPLAQVGHRPLSRTQSSPAAPVSLLSPEPTCQTQVLNSSETPATGLVYDSVMLKHQCSCGDNSKHPEHAGRIQSIWSRLQERGLRSQCECLRGRKASLEELQSVHSERHVLLYGTNPLSRLKLDNGKLTGLLAQRTFVMLPCGGVGVDTDTIWNELHSSNAARWAAGSVTDLAFKVASRELKNGFAVVRPPGHHADHSTAMGFCFFNSVAIACRQLQQHGKASKILIVDWDVHHGNGTQQTFYQDPSVLYISLHRHDDGNFFPGSGAVDEVGTGSGEGFNVNVAWAGGLDPPMGDPEYLAAFRIVVMPIAREFAPDLVLVSAGFDAAEGHPAPLGGYHVSAKCFGYMTQQLMNLAGGAVVLALEGGHDLTAICDASEACVAALLGNKVDPLSEESWKQKPNLSAIRSLEAVVRVHRKYWGCMQRLASCPDSWLPRVPGADAEVEAVTALASLSVGILAEDRPSERLVEEEEPMNL

Variants of: B1
Settings: with 1433e_mouse Ywhae

| effect of a mutation on the interaction | Variant |
| --- | --- |
| disrupting interaction | S178E;S344E;S479E |

Variants of: B1
Settings: with 1433e_mouse Ywhae
Remark: another data set of the same source

| effect of a mutation on the interaction | Variant |
| --- | --- |
| disrupting interaction | S178E;S344E;S479E |

Variants of: B1
Settings: with mef2a_mouse Mef2a

| effect of a mutation on the interaction | Variant |
| --- | --- |
| disrupting interaction strength | S178A;S344A;S479A |
